The record followed here is patent publication US20240026019A1 (Innovent, published 2024).

Assay [1] has as its target T1, cynomolgus monkey TNFR2 overexpressed on CHO-S cells (CHOS-cTNFR2) (cynomolgus monkey, UniProt P20333 23-461 (human entry)).
T1 construct: also called cTNFR2 CHO-S
T1 chain: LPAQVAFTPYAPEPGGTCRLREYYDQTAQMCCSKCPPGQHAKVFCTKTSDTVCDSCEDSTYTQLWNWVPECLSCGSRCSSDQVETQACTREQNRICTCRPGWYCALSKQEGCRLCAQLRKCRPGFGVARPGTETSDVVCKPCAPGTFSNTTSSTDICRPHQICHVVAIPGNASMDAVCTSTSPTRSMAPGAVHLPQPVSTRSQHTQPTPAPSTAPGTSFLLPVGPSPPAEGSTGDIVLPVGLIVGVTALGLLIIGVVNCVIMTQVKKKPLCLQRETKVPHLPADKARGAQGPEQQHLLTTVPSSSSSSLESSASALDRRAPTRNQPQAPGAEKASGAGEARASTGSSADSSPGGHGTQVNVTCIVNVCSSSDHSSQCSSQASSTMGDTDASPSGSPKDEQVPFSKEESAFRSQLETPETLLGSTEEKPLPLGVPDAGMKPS
Description: flow cytometry on CHO-S cells overexpressing cynomolgus monkey TNFR2 (chimeric antibodies), MFI-FL2-A; unit taken from the axis Conc log(nM). How it is done: (§1) In the study, the binding of the chimeric antibodies of the present invention, after being diluted in a gradient, to a stable CHO-S cell strain overexpressing human TNFR2 on the surface was assayed by using a flow cytometer. cDNAs encoding human TNFR2 (SEQ ID NO: 60) and cynomolgus monkey TNFR2 (SEQ ID NO: 61) were cloned into pCH01.0 vectors (Invitrogen), which were transfected into CHO-S cells (Invitrogen) to produce CHO-S cells overexpressing human TNFR2 (CHOS-hTNFR2) and CHO-S cells overexpressing cynomolgus monkey TNFR2 (CHOS-cTNFR2).
(§2) CHOS-hTNFR2 cells or CHOS-cTNFR2 cells were counted and diluted to 2×10⁶ cells/mL, and added to a U-bottom 96-well plate at 100 μL/well. The mixture was centrifuged at 300 g for 5 min, and the cell medium was removed. The dilutions of the samples (the chimeric antibodies 3C4, 69B1, and 72G8 and the positive control antibody OPI) (the antibodies were subjected to a three-fold serial dilution in PBS from the maximum antibody concentration of 300 nM) were added to the U-plate, and the cells were resuspended at 100 μL/well and left to stand on ice for 30 min. The suspension was centrifuged at 400 g for 5 min, and the supernatant was removed. The cells were washed twice with PBS. The mixture was centrifuged at 300 g for 5 min, and PBS was removed. […]

Assay [2] has as its target T2, human TNFR2 overexpressed on CHO-S cells (CHOS-hTNFR2) (human, UniProt P20333 23-461).
T2 construct: also called hTNFR2 CHO-S; human TNFR2 molecule overexpressed on CHO-S cells
T2 sequence: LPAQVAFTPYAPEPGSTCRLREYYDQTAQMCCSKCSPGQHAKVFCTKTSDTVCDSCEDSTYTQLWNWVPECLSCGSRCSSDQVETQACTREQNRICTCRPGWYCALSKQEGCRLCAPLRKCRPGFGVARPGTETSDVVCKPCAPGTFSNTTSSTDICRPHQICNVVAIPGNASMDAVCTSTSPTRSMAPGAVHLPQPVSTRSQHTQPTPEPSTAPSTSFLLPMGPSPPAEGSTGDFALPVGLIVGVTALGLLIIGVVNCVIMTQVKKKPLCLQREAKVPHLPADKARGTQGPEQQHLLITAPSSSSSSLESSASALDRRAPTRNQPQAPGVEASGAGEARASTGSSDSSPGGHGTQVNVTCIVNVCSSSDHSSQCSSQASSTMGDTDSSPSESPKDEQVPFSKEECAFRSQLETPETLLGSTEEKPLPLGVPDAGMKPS
In words: flow cytometry on CHO-S cells overexpressing human TNFR2 (chimeric antibodies), MFI-FL2-A; unit taken from the axis Conc log(nM). How it is done: as §1, §2
On the technique in general: A flow cytometer gives signals particle by particle.

The target in assay [3] is T3, hTNFR2 protein (coated on the microplate in the blocking ELISA) (human, UniProt P20333 23-257).
T3 construct: The construct coated in the ELISA is not described (it may or may not be the immunogen, Sino biological 10417-H03H)
T3 sequence (looked up): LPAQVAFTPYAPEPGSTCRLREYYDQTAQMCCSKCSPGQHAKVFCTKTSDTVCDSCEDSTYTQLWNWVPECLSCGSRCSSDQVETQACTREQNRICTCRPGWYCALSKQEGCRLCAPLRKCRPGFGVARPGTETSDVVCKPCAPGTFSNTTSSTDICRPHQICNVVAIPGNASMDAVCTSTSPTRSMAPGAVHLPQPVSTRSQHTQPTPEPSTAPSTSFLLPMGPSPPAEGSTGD
In words: blocking ELISA: hTNFR2 coated on the plate, binding of biotinylated TNFα blocked by the antibody; unit taken from the axis Conc log(nM) [A]. How it is done:
The hTNFR2 protein was resuspended and dissolved to a concentration of 2 μg/mL with PBS, and a microplate was coated with the protein and incubated overnight. The plate was blocked with 5% BSA for 1 h, and a biotinylated antigen (Recombinant Biotinylated TNFα protein (ACRO)) was diluted to 2 μg/mL and added to the plate at 10 μL/well. The antibodies prepared as described above (3C4, 69B1, and 72G8) were each diluted in a gradient starting from the maximum concentration of 300 nM for a total of 8 or 12 dilution gradients. The diluted antibodies were added at 100 μL/well and incubated in PBS on ice for 30 min. The antigen-antibody mixture was incubated in a microplate for 90 min and washed three times with PBS, and the supernatant was discarded. 100 μL of Avidin-HRP (Invitrogen) diluted at a 1:5000 ratio was added to each well, incubated at room temperature for 30 min, and washed six times with PBS. A TMB chromogenic solution (solarbio) was added to the plate at 100 μL/well for color development for 1 min, and the reaction was stopped by adding a stop buffer (solarbio) at 100 μL/well. The plate was read on a microplate reader at OD₄₅₀ and OD₆₂₀.
In a similar manner to that in Example 7, the ability of the humanized antibodies hz3C4.7, hz69b1.5, hz69b1.6, hz69b1.11, and hz69b1.20, and the control antibody OPI to block the binding of human TNFα to hTNFR2 was assayed by ELISA.
On the technique in general: In an ELISA, binding on a coated surface is turned into a signal by an enzyme label.

B1: chimeric antibody 3C4 (antibody, human IgG1, kappa, V domains shown)
VH: QVQLQQSGPELVKPGASVTISCKASDYSFTNYYIHWVKQRPGQGLEWIGWIYPGNVITKYHEKFKGKAILTADTSSTTAYMQLNSLTSEDSAVYFCARSRATGYFDYWGQGTTLTVSS
VL: DIQMTQTTSSLSASLGDRVTISCRASQDIRNYLNWFQQKPDGTIKLLIYYTSRLHSGVPSRFSGSGSGTDYSLTISNLEQEDMATYFCQQFNTLPWTFGGGTKLEIKR
For the molecule B1, the EC50 (usually the midpoint of the concentration-response curve) worked out at 0.355 nM in assay [1] and 2 nM in assay [2]. Further, the IC50 (in general, the concentration that inhibits the measured activity by half) in assay [3] stood at 24.2 nM.

B2: chimeric antibody 69B1 (antibody, human IgG1, kappa, V domains shown)
VH: QIQLVQSGPELKKPGETVKISCKASGYTFTDYSMNWVKQAPGKGLKWMGWLNTETGEPIYADDFKGRFVFSLETSASTAYLEINNLNDEDTATYFCAREAIYYGTSYVLDYWGQGTSVTVSS
VL: DIVLTQSPASLAVSLGQRATISCRASESVEYYGTNFMQWYQQKPGQPPKLLIYSASNVESGVPARFSGSGSGTDFSLNIHPVEEDDIAVYFCQQSRKDPSTFGEGTNLEIKR
In the case of B2, the figures for the EC50 in assay [1] and in assay [2] were 0.324 nM and 3.14 nM, respectively.

B3: positive control antibody OPI (humanized antibody SBT-002e in WO 2017083525) (antibody, V domains shown)
VH: QVTLKESGPALVKPTQTLTLTCTFSGFSLSTSGMGVGWIRQPPGKALEWLAHIWWDDDKFYNPSLKSRLTISKDTSKNQVVLTMTNMDPVDTATYYCARLTGTRYFDYWGQGTTVTVSS
VL: DVQMTQSPSSLSASVGDRVTITCKASQDINKFIAWYQQKPGKAPKLLIHYTSTLQPGIPSRFSGSGSGRDYTFTISSLQPEDIATYYCLQYGNLWTFGGGTKVEIK
notes: also called Benchmark OPI
Regarding B3, the IC50 in assay [3] is 38.2 nM.
